From US6824972 (BAYLOR COLLEGE OF MEDICINE, dated 2004)

Biological target: T1, NF-κB relA subunit (human, UniProt Q04206 1-551)
T1 construct: also called re1A; p65
Test: EMSA with supershift (antisera to p50 and relA), nuclear extracts of TNF-stimulated normal and patient G embryonic fibroblasts, 32P-labelled MHC-1 probe

T1 sequence (Q04206 whole entry): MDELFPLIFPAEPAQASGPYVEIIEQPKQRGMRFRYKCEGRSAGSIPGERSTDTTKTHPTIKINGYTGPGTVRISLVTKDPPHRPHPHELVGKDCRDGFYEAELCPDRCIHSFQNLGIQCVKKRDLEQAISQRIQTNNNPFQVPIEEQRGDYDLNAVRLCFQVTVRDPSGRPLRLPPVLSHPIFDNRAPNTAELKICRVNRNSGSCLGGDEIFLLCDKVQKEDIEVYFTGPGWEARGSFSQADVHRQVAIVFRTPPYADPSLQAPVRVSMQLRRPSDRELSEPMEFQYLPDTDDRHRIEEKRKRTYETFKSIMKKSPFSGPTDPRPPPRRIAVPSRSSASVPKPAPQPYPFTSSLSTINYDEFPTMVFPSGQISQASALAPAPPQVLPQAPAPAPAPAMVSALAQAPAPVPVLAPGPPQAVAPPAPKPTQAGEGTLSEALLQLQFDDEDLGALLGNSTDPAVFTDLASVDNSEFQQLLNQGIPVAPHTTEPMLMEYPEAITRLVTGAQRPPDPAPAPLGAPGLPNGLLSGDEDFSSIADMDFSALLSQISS

B1: NF-κB p50 subunit (other, human, UniProt P19838 1-433, looked up)
chain: MAEDDPYLGRPEQMFHLDPSLTHTIFNPEVFQPQMALPTDGPYLQILEQPKQRGFRFRYVCEGPSHGGLPGASSEKNKKSYPQVKICNYVGPAKVIVQLVTNGKNIHLHAHSLVGKHCEDGICTVTAGPKDMVVGFANLGILHVTKKKVFETLEARMTEACIRGYNPGLLVHPDLAYLQAEGGGDRQLGDREKELIRQAALQQTKEMDLSVVRLMFTAFLPDSTGSFTRRLEPVVSDAIYDSKAPNASNLKIVRMDRTAGCVTGGEEIYLLCDKVQKDDIQIRFYEEEENGGVWEGFGDFSPTDVHRQFAIVFKTPKYKDINITKPASVFVQLRRKSDLETSEPKPFLYYPEIKDKEEVQRKRQKLMPNFSDSFGGGSGAGAGGGGMFGSGGGGGGTGSTGPGYSFPHYGFPTYGGITFHPGTTKSNAGMKHG
B1: binds.
